Literature values as cited in publication PMC3734285, “Expression and Function of the Lipocalin-2 (24p3/NGAL) Receptor in Rodent and Human Intestinal Epithelia” (PLoS ONE, 2013).

Tested on: megalin

B1: hNGAL: Human lipocalin-2/Neutrophil Gelatinase-Associated Lipocalin, high-affinity ligand of hNGAL-R, from Enzo Life Sciences (protein)
chain: QDSTSDLIPAPPLSKVPLQQNFQDNQFQGKWYVVGLAGNAILREDKDPQKMYATIYELKEDKSYNVTSVLFRKKKCDYWIRTFVPGCQPGEFTLGNIKSYPGLTSYLVRVVSTNYNQHAMVFFKKVSQNREYFKITLYGRTKELTSELKENFIRFSKSLGLPENHIVFPVPIDQCIDG
fold lower affinity of megalin to hNGAL (versus hNGAL-R): ~1000 fold
